From article PMC2924587 (2010)

Biological target: Protein phosphatase 1 alpha 7-330 (Homo sapiens, UniProt P62136)
Experiment: ITC

Sequence of Protein phosphatase 1 alpha 7-330 (P62136 7-330): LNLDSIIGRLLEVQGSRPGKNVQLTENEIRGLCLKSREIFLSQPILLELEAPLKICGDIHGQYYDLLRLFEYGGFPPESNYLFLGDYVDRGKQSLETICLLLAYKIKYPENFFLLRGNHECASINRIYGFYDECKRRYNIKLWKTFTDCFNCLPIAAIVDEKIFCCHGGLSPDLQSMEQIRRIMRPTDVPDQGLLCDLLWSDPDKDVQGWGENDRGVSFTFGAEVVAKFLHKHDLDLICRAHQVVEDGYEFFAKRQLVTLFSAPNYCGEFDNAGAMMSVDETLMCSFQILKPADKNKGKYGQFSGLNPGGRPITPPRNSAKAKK

B1: Spinophilin 417-583 (protein)
chain: not shown
Binder B1 has a Kd of 8.7 nM.
